In patent US20240026019A1 (Innovent, published 2024):

B1: hybridoma antibody 3C4 (antibody, V domains shown)
VH: QVQLQQSGPELVKPGASVTISCKASDYSFTNYYIHWVKQRPGQGLEWIGWIYPGNVITKYHEKFKGKAILTADTSSTTAYMQLNSLTSEDSAVYFCARSRATGYFDYWGQGTTLTVSS
VL: DIQMTQTTSSLSASLGDRVTISCRASQDIRNYLNWFQQKPDGTIKLLIYYTSRLHSGVPSRFSGSGSGTDYSLTISNLEQEDMATYFCQQFNTLPWTFGGGTKLEIK
notes: Murine antibody from the hybridoma (detected with anti-mouse IgG)
B2: humanized antibody hz69B1.5 (antibody, human IgG1, kappa, V domains shown)
VH: QIQLVQSGSELKKPGASVKVSCKASGYTFTDYSMNWVRQAPGQGLEWMGWLNTETGEPIYADDFKGRFVFSLDTSVSTAYLQISSLKAEDTAVYFCAREAIYYGTSYVLDYWGQGTLVTVSS
VL: DIVLTQSPASLAVSPGQRATITCRASESVEYYGTNFMQWYQQKPGQPPKLLIYSASNVESGVPARFSGSGSGTDFTLTINPVEANDTANYYCQQSRKDPSTFGQGTKLEIKR
B3: humanized antibody hz69B1.6 (antibody, human IgG1, kappa, V domains shown)
VH: QVQLVQSGAEVKKPGASVKVSCKASGYTFTDYSMNWVRQAPGQRLEWMGWLNTETGEPIYADDFKGRVTITRDTSASTAYMELSSLRSEDTAVYYCAREAIYYGTSYVLDYWGQGTLVTVSS
VL: DIVLTQSPASLAVSPGQRATITCRASESVEYYGTNFMQWYQQKPGQPPKLLIYSASNVESGVPARFSGSGSGTDFTLTINPVEANDTANYFCQQSRKDPSTFGQGTKLEIKR
B4: humanized antibody hz69B1.20 (antibody, human IgG1, kappa, V domains shown)
VH: QIQLVQSGSELKKPGASVKVSCKASGYTFTDYSMNWVRQAPGQGLEWMGWLNTETGEPIYADDFKGRFVFSLDTSVSTAYLQISSLKAEDTAVYFCAREAIYYGTSYVLDYWGQGTLVTVSS
VL: DIVLTQSPASLAVSPGQRATITCRASESVEYYGTNFMQWYQQKPGQPPKLLIYSASNVESGVPARFSGSGSGTDFTLTINPVEAQDTANYFCQQSRKDPSTFGQGTKLEIKR
B5: humanized antibody hz69B1.11 (antibody, human IgG1, kappa, V domains shown)
VH: QVQLVQSGAEVKKPGASVKVSCKASGYTFTDYSMNWVRQAPGQRLEWMGWLNTETGEPIYADDFKGRVTITRDTSASTAYMELSSLRSEDTAVYYCAREAIYYGTSYVLDYWGQGTLVTVSS
VL: DIVLTQSPASLAVSPGQRATITCRASESVEYYGTNFMQWYQQKPGQPPKLLIYSASNVESGVPARFSGSGSGTDFTLTINPVEAQDTANYFCQQSRKDPSTFGQGTKLEIKR
B6: humanized antibody hz3C4.7 (antibody, human IgG1, kappa, V domains shown)
VH: QVQLVQSGAEVKKPGASVKVSCKASDYSFTNYYIHWVRQAPGQGLEWMGWIYPGNVITKYHEKFKGRVTMTADTSTSTAYMELSSLRSEDTAVYYCARSRATGYFDYWGQGTLVTVSS
VL: DIQMTQSPSSLSASVGDRVTITCRASQDIRNYLNWYQQKPGKAPKLLIYYTSRLHSGVPSRFSGSGSGTDYTLTISSLQPEDFATYYCQQFNTLPWTFGGGTKVEIKR

What was measured:
[1] = molecular target: T1, human TNFR2 overexpressed on CHO-S cells (CHOS-hTNFR2) (human, UniProt P20333 23-461); test: flow cytometry on CHO-S cells overexpressing human TNFR2 (hybridoma antibodies), MFI
T1 construct: also called hTNFR2 CHO-S; human TNFR2 molecule overexpressed on CHO-S cells
T1 sequence: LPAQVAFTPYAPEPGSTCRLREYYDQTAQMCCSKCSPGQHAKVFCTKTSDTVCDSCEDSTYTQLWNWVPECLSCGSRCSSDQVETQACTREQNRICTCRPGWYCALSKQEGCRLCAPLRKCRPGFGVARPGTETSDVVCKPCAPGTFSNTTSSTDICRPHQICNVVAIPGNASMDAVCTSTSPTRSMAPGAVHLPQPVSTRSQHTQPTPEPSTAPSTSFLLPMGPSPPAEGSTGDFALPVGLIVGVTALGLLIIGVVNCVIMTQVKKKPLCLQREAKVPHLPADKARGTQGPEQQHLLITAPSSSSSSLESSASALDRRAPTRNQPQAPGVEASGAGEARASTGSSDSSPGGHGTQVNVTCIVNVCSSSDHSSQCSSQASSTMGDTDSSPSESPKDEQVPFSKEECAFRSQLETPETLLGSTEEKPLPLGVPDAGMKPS
Protocol: In the study, the binding of the hybridoma antibodies (3C4, 69B1, and 72G8) of the present invention, after being diluted in a gradient, to a stable CHO-S cell strain overexpressing human TNFR2 on the surface was assayed by using a flow cytometer.
CHOS-hTNFR2 cells or CHOS-cTNFR2 cells were counted and diluted to 2×10⁶ cells/mL, and added to a U-bottom 96-well plate at 100 μL/well. The mixture was centrifuged at 300 g for 5 min, and the cell medium was removed. The dilutions of the samples (the hybridoma antibodies 3C4, 69B1, and 72G8 and the positive control antibody OPI) (the antibodies were subjected to a two-fold serial dilution in PBS from the maximum antibody concentration of 300 nM) were added to the U-plate, and the cells were resuspended at 100 μL/well and left to stand on ice for 30 min. The suspension was centrifuged at 400 g for 5 min, and the supernatant was removed. The cells were washed twice with PBS. The mixture was centrifuged at 300 g for 5 min, and PBS was removed. […] The mixture was centrifuged at 400 g for 5 min, and the supernatant was removed. The cells were washed 3 times with PBS. The cells were resuspended in 200 μL of 1×PBS and assayed by FACS.

[2] = molecular target: T2, hTNFR2 protein (coated on the microplate in the blocking ELISA) (human, UniProt P20333 23-257); test: blocking ELISA: hTNFR2 coated on the plate, binding of biotinylated TNFα blocked by the antibody, Avidin-HRP
T2 construct: The construct coated in the ELISA is not described (it may or may not be the immunogen, Sino biological 10417-H03H)
T2 sequence (looked up): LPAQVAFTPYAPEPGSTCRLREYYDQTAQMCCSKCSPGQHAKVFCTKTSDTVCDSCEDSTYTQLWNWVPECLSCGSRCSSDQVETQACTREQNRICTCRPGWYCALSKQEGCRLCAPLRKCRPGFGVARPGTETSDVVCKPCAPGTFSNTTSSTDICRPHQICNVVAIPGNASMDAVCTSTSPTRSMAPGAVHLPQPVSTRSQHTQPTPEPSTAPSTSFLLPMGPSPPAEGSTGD
Protocol: The ability of the hybridoma antibodies 3C4, 69B1, and 72G8 and the control antibody OPI to block the binding of human TNFα to hTNFR2 was assayed by ELISA.
(§1) The hTNFR2 protein was resuspended and dissolved to a concentration of 2 μg/mL with PBS, and a microplate was coated with the protein and incubated overnight. The plate was blocked with 5% BSA for 1 h, and a biotinylated antigen (Recombinant Biotinylated TNFα protein (ACRO)) was diluted to 3 μg/mL and added to the plate at 20 μL/well. The antibodies prepared as described above (3C4, 69B1, and 72G8) were each diluted in a gradient starting from the maximum concentration of 300 nM for a total of 8 or 12 dilution gradients. The diluted antibodies were added at 200 μL/well and incubated in PBS on ice for 30 min. The antigen-antibody mixture was incubated in a microplate for 90 min and washed three times with PBS, and the supernatant was discarded. 100 μL of Avidin-HRP (Invitrogen) diluted at a 1:5000 ratio was added to each well, incubated at room temperature for 30 min, and washed six times with PBS. A TMB chromogenic solution (solarbio) was added to the plate at 100 μL/well for color development for 1 min, and the reaction was stopped by adding a stop buffer (solarbio) at 100 μL/well. The plate was read on a microplate reader at OD₄₅₀ and OD₆₂₀.

[3] = molecular target: T3, TNFR2 on human K562 chronic myeloid leukemia cells and on primary human Treg cells (human, UniProt P20333 23-461); test: flow cytometry on human K562 CML cells, MFI(FL2); unit taken from the axis Conc log(nM)
T3 construct: whole, on cells; also called K562 cells
T3 sequence (looked up): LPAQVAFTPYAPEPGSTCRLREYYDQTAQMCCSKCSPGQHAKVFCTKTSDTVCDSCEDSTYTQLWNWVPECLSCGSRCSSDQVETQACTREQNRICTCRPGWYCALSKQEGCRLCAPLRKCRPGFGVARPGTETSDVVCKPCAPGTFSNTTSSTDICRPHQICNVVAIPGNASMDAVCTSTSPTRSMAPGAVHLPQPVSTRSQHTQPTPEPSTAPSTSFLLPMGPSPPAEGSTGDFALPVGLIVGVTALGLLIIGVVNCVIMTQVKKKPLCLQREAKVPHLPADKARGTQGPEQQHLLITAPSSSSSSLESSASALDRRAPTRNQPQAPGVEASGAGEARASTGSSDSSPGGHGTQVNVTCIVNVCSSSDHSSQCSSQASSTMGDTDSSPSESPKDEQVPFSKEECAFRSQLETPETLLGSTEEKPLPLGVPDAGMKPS
Protocol: (§2) Assay steps: The mixture was centrifuged at 400 g for 5 min, and the cell medium was removed. K562 or Treg cells were resuspended in PBS. After counting, the cells were adjusted to a density of 2×10⁶/mL, and the cell suspension was added to a U-bottom 96-well plate at 100 μL/well. The test antibody was added, subjected to a three-fold gradient dilution, and left to stand on ice for 30 min. The mixture was centrifuged at 300 g for 5 min, and the supernatant was removed. The cells were washed once with PBS. The mixture was centrifuged at 300 g for 5 min, and PBS was removed. 100 μL of PE-anti-human Fc antibody (SOUTHERN BIOTECH, 2040-09) diluted at a ratio of 1:200 was added to each well. The mixture was incubated on ice for 30 min in the dark. The mixture was centrifuged at 400 g for 5 min, and the supernatant was removed. The cells were washed twice with PBS. The cells were resuspended in 100 μL of PBS and assayed by using a flow cytometer (BD, ACCURIC6 plus).

[4] = molecular target: T3, TNFR2 on human K562 chronic myeloid …; test: flow cytometry on primary human Treg cells, MFI(FL2); unit taken from the axis Conc log(nM)
Protocol: Tregs were prepared as follows: Human PBMC cells ([…], PB005F) were thawed, CD4⁺ CD25⁺ CD127^low cells were sorted by flow cytometry, and Treg cells were isolated. According to CD4⁺:anti-CD3/CD28 Beads=1:1, Dynabeads Human T-Activator CD3/CD28 (Gibco, 11131D) was added, followed by 10 ng/mL recombinant IL2, and the cells were stimulated for 7 days.
as §2

[5] = molecular target: T1, human TNFR2 overexpressed on CHO-S …; test: flow cytometry on CHO-S cells overexpressing human TNFR2 (humanized antibodies), MFI-FL2A; unit taken from the axis Conc log(nM)
Protocol: In the study, the binding of the antibodies, after being diluted in a gradient, to a stable CHO-S strain line overexpressing human TNFR2 on the surface was assayed by using a flow cytometer.
CHOS-hTNFR2 cells were counted and diluted to 2×10⁶ cells/mL, and added to a U-bottom 96-well plate at 100 μL/well. The mixture was centrifuged at 300 g for 5 min, and the cell medium was removed. Samples (the humanized antibodies hz3C4.7, hz69B1.5, hz69B1.6, hz69B1.11 and hz69B1.20, the chimeric antibody 69B1, and the positive control antibody OPI) (the antibodies were subjected to a three-fold dilution in PBS from the maximum antibody concentration of 300 nM) were added to the U-plate, and the cells were resuspended at 100 μL/well and left to stand on ice for 30 min. The suspension was centrifuged at 400 g for 5 min, and the supernatant was removed. The cells were washed twice with PBS. The mixture was centrifuged at 300 g for 5 min, and PBS was removed. 100 μL of anti-human Fc PE-labeled secondary antibody (SoutherBiotech; 2040-09) (diluted at a 1:100 ratio in PBS) was added to each well and incubated on ice for 30 min in the dark. The mixture was centrifuged at 400 g for 5 min, and the supernatant was removed. The cells were washed 3 times with PBS. The cells were resuspended in 200 μL of 1×PBS and assayed by FACS.

[6] = molecular target: T2, hTNFR2 protein (coated on the …); test: blocking ELISA: hTNFR2 coated on the plate, binding of biotinylated TNFα blocked by the antibody; unit taken from the axis Conc log(nM) [A]
Protocol: as §1, with “to 2” for “to 3”, “at 10” for “at 20”, “at 100” for “at 200”
In a similar manner to that in Example 7, the ability of the humanized antibodies hz3C4.7, hz69b1.5, hz69b1.6, hz69b1.11, and hz69b1.20, and the control antibody OPI to block the binding of human TNFα to hTNFR2 was assayed by ELISA.

Binder | EC50 (read off the curve) [1] | IC50 (read off the curve) [2] | EC50 [3] | EC50 [4] | EC50 [5] | IC50 [6]
B1 | ~2 nM | ~5 nM | – | – | – | –
B2 | – | – | 0.0613 nM | 0.0239 nM | 0.424 nM | –
B3 | – | – | – | – | 0.357 nM | –
B4 | – | – | 0.0549 nM | 0.0299 nM | 0.42 nM | –
B5 | – | – | 0.0446 nM | 0.0243 nM | 0.36 nM | –
B6 | – | – | 0.0356 nM | 0.0599 nM | 0.207 nM | 30 nM
